B1: IgG1-F945 (antibody)
heavy: QVQLQESGPGLVKPSETLSLTCAVSGHSISHDHAWSWVRQPPGEGLEWIGFISYSGITNYNPSLQGRVTISRDNSKNTLYLQMNSLRAEDTAVYYCARSLARTTAMDYWGEGTLVTVSSASTKGPSVFPLAPSSKSTSGGTAALGCLVKDYFPEPVTVSWNSGALTSGVHTFPAVLQSSGLYSLSSVVTVPSSSLGTQTYICNVNHKPSNTKVDKKVEPKSCDKTHTCPPCPAPELLGGPSVFLFPPKPKDVLYISRTPEVTCVVVDVSHEDPEVKFNWYVDGVEVHNAKTKPREEQYNSTYRVVSVLTPLHQDWLNGKEYKCKVSNKALPAPIEKTISKAKGQPREPQVYTLPPSRDELTKNQVSLTCLVKGFYPSDIAVEWESNGQPENNYKTTPPVLDSDGSFFLYSKLTVDKSRWQQGNVFSCSVMHEALHYHVTQKSLSLSP
light: not shown
notes: EU numbering; copies: 2 + 2
B2: IgG1-F946 (antibody)
heavy: QVQLQESGPGLVKPSETLSLTCAVSGHSISHDHAWSWVRQPPGEGLEWIGFISYSGITNYNPSLQGRVTISRDNSKNTLYLQMNSLRAEDTAVYYCARSLARTTAMDYWGEGTLVTVSSASTKGPSVFPLAPSSKSTSGGTAALGCLVKDYFPEPVTVSWNSGALTSGVHTFPAVLQSSGLYSLSSVVTVPSSSLGTQTYICNVNHKPSNTKVDKKVEPKSCDKTHTCPPCPAPELLGGPSVFLFPPKPKDVLYISRTPEVTCVVVDVSHEDPEVKFNWYVDGVEVHNAKTKPREEQYNSTYRVVSVLQVLHADWLNGKEYKCKVSNKALPAPIEKTISKAKGQPREPQVYTLPPSRDELTKNQVSLTCLVKGFYPSDIAVEWESNGQPENNYKTTPPVLDSDGSFFLYSKLTVDKSRWQQGNVFSCSVMHEALHYHVTQKSLSLSP
light: not shown
notes: EU numbering; copies: 2 + 2
B3: IgG1-F947 (antibody)
heavy: QVQLQESGPGLVKPSETLSLTCAVSGHSISHDHAWSWVRQPPGEGLEWIGFISYSGITNYNPSLQGRVTISRDNSKNTLYLQMNSLRAEDTAVYYCARSLARTTAMDYWGEGTLVTVSSASTKGPSVFPLAPSSKSTSGGTAALGCLVKDYFPEPVTVSWNSGALTSGVHTFPAVLQSSGLYSLSSVVTVPSSSLGTQTYICNVNHKPSNTKVDKKVEPKSCDKTHTCPPCPAPELLGGPSVFLFPPKPKDVLYISRTPEVTCVVVDVSHEDPEVKFNWYVDGVEVHNAKTKPREEQYNSTYRVVSVLQPLHADWLNGKEYKCKVSNKALPAPIEKTISKAKGQPREPQVYTLPPSRDELTKNQVSLTCLVKGFYPSDIAVEWESNGQPENNYKTTPPVLDSDGSFFLYSKLTVDKSRWQQGNVFSCSVMHEALHYHVTQKSLSLSP
light: not shown
notes: copies: 2 + 2
B4: IgG1-F954 (antibody)
heavy: QVQLQESGPGLVKPSETLSLTCAVSGHSISHDHAWSWVRQPPGEGLEWIGFISYSGITNYNPSLQGRVTISRDNSKNTLYLQMNSLRAEDTAVYYCARSLARTTAMDYWGEGTLVTVSSASTKGPSVFPLAPSSKSTSGGTAALGCLVKDYFPEPVTVSWNSGALTSGVHTFPAVLQSSGLYSLSSVVTVPSSSLGTQTYICNVNHKPSNTKVDKKVEPKSCDKTHTCPPCPAPELLGGPSVFLFPPKPKDTLYISRTPEVTCVVVDVSHEDPEVKFNWYVDGVEVHNAKTKPREEQYNSTYRVVSVLTVLHQDWLNGKEYKCKVSNKALPAPIEKTISKAKGQPREPQVYTLPPSRDELTKNQVSLTCLVKGFYPSDIAVEWESNGQPENNYKTTPPVLDSDGSFFLYSKLTVDKSRWQQGNVFSCSVMHEALHYKVTQKSLSLSP
light: not shown
notes: EU numbering; copies: 2 + 2
B5: IgG1-F957 (antibody)
heavy: QVQLQESGPGLVKPSETLSLTCAVSGHSISHDHAWSWVRQPPGEGLEWIGFISYSGITNYNPSLQGRVTISRDNSKNTLYLQMNSLRAEDTAVYYCARSLARTTAMDYWGEGTLVTVSSASTKGPSVFPLAPSSKSTSGGTAALGCLVKDYFPEPVTVSWNSGALTSGVHTFPAVLQSSGLYSLSSVVTVPSSSLGTQTYICNVNHKPSNTKVDKKVEPKSCDKTHTCPPCPAPELLGGPSVFLFPPKPKDTLYISRTPEVTCVVVDVSHEDPEVKFNWYVDGVEVHNAKTKPREEQYNSTYRVVSVLTVLHQDWLNGKEYKCKVSNKALPAPIEKTISKAKGQPREPQVYTLPPSRDELTKNQVSLTCLVKGFYPSDIAVEWESNGQPENNYKTTPPVLDSDGSFFLYSKLTVDKSRWQQGNVFSCSVMHEALHYNVTQKSLSLSP
light: not shown
notes: EU numbering; copies: 2 + 2

Each binder was assayed against T1, soluble human FcRn complexed with β2-microglobulin (human, UniProt P61769 21-119, limits assumed) (assay: Biacore SPR, pH 7.0;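 also: test antibodies captured on a Protein L chip with human FcRn flowed over as analyte, KD obtained as the ratio of dissociation to association rate constants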).
T1 construct: also called hFcRn
T1 sequence (chain, as listed by the source limits assumed, chain 1 of 2): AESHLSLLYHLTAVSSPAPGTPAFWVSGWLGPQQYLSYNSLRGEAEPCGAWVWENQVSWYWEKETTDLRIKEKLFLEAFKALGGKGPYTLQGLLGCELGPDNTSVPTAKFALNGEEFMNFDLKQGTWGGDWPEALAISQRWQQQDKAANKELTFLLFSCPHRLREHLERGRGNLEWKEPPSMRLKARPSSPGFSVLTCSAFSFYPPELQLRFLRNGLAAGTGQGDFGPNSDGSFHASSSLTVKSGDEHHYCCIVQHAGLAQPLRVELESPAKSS
T1 sequence (P61769 21-119 limits assumed, chain 2 of 2): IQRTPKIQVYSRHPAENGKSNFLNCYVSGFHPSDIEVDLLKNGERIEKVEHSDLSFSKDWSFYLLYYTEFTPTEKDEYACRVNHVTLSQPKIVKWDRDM
Work on B1 yielded a Kd of 0.017 µM.
In the case of B2, the Kd is reported as 0.043 µM.
B3 was tested, and the Kd was 0.011 µM.
B4 gave a Kd of 0.53 µM.
With B5 the Kd was 0.77 µM.

From patent US20200199241A1 (Chugai, published 2020)
